Measured values reported in patent US9243280.
“Also recorded” adds a separate entry of the source.

Key:
[1] = target: Ribosomal protein S1 bearing the C-terminal control peptide tag (UniProt P0AG67)
[2] = system: GFP fusion with aminoglycoside acetyltransferase (AAC)
[3] = target: Ribosomal protein S1 bearing the C-terminal degradation peptide tag (UniProt P0AG67)

“ClpXP protease (complex of a hexamer of the ClpX unfoldase and the 14-mer ClpP protease)” was tested, and the “colony formation on plates with arabinose (ClpP and ClpX induced)” value [1] was “Colony formation by the rpsA-cont strain was unaffected by ClpP-X expression”, the “level of S1-cont after induction of ClpP-X (anti-FLAG immunoblot of total protein)” value [1] was “The induction of ClpP-X in the rpsA-cont strain did not alter the level of S1-cont throughout the time course” and the “in vitro degradation at 30 degrees C with ClpX, ClpP, ATP and an ATP regeneration system (SDS-PAGE, Coomassie staining)” value [2] was “By 80 minutes, all of the substrate (10-fold over ClpX6) was degraded”. The “amount of S1-deg present 25, 35, and 45 minutes post induction, quantified against a dilution series on an immunoblot” value [3] was “less than 0.5% of the level present prior to induction”, the “level of S1-deg after induction of ClpP-X (anti-FLAG immunoblot of total protein)” value [3] was “the level of S1-deg was reduced to approximately 50% by 15 minutes; also recorded: to trace levels at 25 minutes and beyond” and the “number of colony-forming units on plates under inducing against non-inducing conditions” value [3] was “expression of ClpP-X reduced the number of colony-forming units by more than a million-fold when the strain relied on S1-deg for growth”.
